Reference: PMC8254751 (Molecular cancer research : MCR, 2021)
Where “and” joins values, the source holds several entries; their conditions need not be identical. Equal values may be shown once. Values belong to the binder of their own block, whether it stands above or below them.

B1: His-ASXL2-AB (261–381aa) (domain or fragment, human, UniProt Q76L83 261-381, looked up)
chain: MKRTKCADIDVETPDSILVNTNLRALINKHTFSVLPGDCQQRLLLLLPEVDRQVGPDGLMKLNGSALNNEFFTSAAQGWKERLSEGEFTPEMQVRIRQEIEKEKKVEPWKEQFFESYYGQS
B2: His-ULD/AB protein complex (pETDuet-1-His-BAP1-ULD+ASXL2-AB) (complex, human)
chain 1: KEVVEATDSREKTGMVRPGEPLSGEKYSPKELLALLKCVEAEIANYEACLKEEVEKRKKFKIDDQRRTHNYDEFICTFISMLAQEGMLANLVEQNISVRRRQGVSIGRLHKQRKPDRRKRSRPYKAKRQ
chain 2: MKRTKCADIDVETPDSILVNTNLRALINKHTFSVLPGDCQQRLLLLLPEVDRQVGPDGLMKLNGSALNNEFFTSAAQGWKERLSEGEFTPEMQVRIRQEIEKEKKVEPWKEQFFESYYGQS
B4: His-BAP1-ULD (601–729aa) (domain or fragment, human, UniProt Q92560 601-729, looked up)
chain: KEVVEATDSREKTGMVRPGEPLSGEKYSPKELLALLKCVEAEIANYEACLKEEVEKRKKFKIDDQRRTHNYDEFICTFISMLAQEGMLANLVEQNISVRRRQGVSIGRLHKQRKPDRRKRSRPYKAKRQ

Assays:
His-BAP1-ULD (601–729aa) = biological target: B4; assay: ITC
GST-BAP1-ULD = biological target: T1, GST-BAP1-ULD (human, UniProt Q92560 601-729); assay: SPR
T1 sequence (looked up): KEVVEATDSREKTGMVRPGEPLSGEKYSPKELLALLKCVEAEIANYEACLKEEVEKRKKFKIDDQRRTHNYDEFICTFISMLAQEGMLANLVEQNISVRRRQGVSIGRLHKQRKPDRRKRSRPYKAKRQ

[1] = biological target: T2, Full-length His-BAP1 (Bv-His-BAP1-FL-WT) (human, UniProt Q92560 1-729); assay: SPR
T2 sequence (looked up): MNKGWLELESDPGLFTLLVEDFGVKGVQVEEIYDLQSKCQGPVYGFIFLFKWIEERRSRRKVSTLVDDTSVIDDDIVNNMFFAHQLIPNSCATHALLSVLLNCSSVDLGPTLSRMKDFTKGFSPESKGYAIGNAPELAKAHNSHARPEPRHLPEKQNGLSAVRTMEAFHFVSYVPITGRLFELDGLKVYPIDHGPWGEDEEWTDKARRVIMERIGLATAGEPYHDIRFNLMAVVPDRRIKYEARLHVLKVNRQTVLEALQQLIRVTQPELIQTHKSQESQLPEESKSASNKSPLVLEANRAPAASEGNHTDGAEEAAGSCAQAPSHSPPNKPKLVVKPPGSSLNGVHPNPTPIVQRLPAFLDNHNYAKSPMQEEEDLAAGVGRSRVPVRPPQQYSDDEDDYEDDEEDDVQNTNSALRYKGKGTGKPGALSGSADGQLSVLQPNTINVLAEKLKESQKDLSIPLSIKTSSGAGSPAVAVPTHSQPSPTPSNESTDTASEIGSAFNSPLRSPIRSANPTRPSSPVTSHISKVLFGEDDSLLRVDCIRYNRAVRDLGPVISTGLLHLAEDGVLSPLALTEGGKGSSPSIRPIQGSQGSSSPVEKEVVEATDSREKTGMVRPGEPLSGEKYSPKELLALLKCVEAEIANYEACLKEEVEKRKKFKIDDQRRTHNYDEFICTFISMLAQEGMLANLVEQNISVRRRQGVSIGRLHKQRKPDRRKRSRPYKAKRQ

[2] = biological target: B2; assay: SPR
His-ASXL2-AB (261–381aa) = biological target: B1; assay: ITC

Binder: B1
Kd (His-BAP1-ULD (601–729aa)): ~4260 nM
Kd (GST-BAP1-ULD): 134 nM and 67 nM

Binder: B2
Kd [1]: 850 nM and 1910 nM
koff [1]: 0.033 s⁻¹

koff [2]: 0.044 s⁻¹
B3: GST-BAP1-UCH-WT (1–250 aa) (domain or fragment, human, UniProt Q92560 1-250, looked up)
chain: MNKGWLELESDPGLFTLLVEDFGVKGVQVEEIYDLQSKCQGPVYGFIFLFKWIEERRSRRKVSTLVDDTSVIDDDIVNNMFFAHQLIPNSCATHALLSVLLNCSSVDLGPTLSRMKDFTKGFSPESKGYAIGNAPELAKAHNSHARPEPRHLPEKQNGLSAVRTMEAFHFVSYVPITGRLFELDGLKVYPIDHGPWGEDEEWTDKARRVIMERIGLATAGEPYHDIRFNLMAVVPDRRIKYEARLHVLKV

Binder: B4
dH (His-ASXL2-AB (261–381aa)): -9.87 kcal/mol
